Measured values taken from paper PMC9482650, “Quantitative fragmentomics allow affinity mapping of interactomes” (Nature Communications, 2022).
One block for each binder: values may come before it.

How the values were obtained:
Assay in all cases: holdup assay
Design in all cases: key: below the threshold = too weak to quantify, mostly under pKd 3.1 to 4
[1] = target: ARHGEF12, Q9NZN5-2
[2] = target: Inadl_9, Q8NI35
[3] = target: T1, SIPA1L2, Q9P2F8
T1 sequence (Q9P2F8 945-1036, limits assumed, looked up): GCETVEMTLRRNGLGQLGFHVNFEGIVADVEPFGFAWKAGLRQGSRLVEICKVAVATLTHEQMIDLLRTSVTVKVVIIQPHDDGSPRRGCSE

[4] = target: MAGI2_5, Q86UL8
[5] = target: T2, APBA2_2, Q99767
T2 sequence (Q99767 654-744, limits assumed, looked up): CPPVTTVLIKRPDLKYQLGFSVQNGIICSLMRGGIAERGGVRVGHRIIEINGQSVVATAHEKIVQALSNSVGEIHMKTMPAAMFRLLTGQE

[6] = target: MAGI1_1, Q96QZ7
[7] = target: IL16_1, Q14005
[8] = target: T3, LNX2_3, Q8N448
T3 sequence (Q8N448 463-564, limits assumed, looked up): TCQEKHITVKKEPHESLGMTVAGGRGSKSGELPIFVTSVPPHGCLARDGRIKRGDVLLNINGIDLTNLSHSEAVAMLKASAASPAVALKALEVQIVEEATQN

[9] = target: GRID2IP_1, A4D2P6
[10] = target: T4, DFNB31_1, Q9P202
T4 sequence (Q9P202 135-233, limits assumed, looked up): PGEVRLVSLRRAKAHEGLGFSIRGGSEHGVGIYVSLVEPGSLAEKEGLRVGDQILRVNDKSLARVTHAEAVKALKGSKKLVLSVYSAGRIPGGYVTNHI

[11] = target: T5, GRIP1_3, Q9Y3R0
T5 sequence (Q9Y3R0 247-346, limits assumed, looked up): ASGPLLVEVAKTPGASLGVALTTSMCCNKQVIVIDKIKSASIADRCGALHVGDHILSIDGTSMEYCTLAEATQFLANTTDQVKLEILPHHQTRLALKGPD

[12] = target: CASK, O14936
[13] = target: T6, MPDZ_12, O75970
T6 sequence (O75970 1857-1958, limits assumed, looked up): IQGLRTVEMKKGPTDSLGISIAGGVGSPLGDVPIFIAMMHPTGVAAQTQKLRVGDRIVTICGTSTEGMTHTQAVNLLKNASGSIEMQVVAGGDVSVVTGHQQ

[14] = target: MAGI2_2, Q86UL8
[15] = target: T7, RADIL, Q96JH8
T7 sequence (Q96JH8 971-1071, limits assumed, looked up): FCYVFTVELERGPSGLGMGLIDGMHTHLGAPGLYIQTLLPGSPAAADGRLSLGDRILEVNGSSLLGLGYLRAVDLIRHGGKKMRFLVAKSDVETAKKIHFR

[16] = target: NHERF4_4, Q86UT5
[17] = target: Inadl_6, Q8NI35
[18] = target: T8, NHERF3_3, Q5T2W1
T8 sequence (Q5T2W1 238-333, limits assumed, looked up): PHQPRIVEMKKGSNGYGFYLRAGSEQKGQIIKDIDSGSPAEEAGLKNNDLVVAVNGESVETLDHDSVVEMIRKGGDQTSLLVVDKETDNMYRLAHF

[19] = target: GRIP2_4, Q9C0E4
[20] = target: LNX1_2, Q8TBB1
[21] = target: T9, CARD11, Q9BXL7
T9 sequence (Q9BXL7 662-765, limits assumed, looked up): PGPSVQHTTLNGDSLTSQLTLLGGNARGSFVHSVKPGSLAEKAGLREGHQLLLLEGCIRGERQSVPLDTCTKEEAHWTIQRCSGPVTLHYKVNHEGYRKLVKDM

[22] = target: GRID2IP_2, A4D2P6
[23] = target: LIMK2, P53671
[24] = target: FRMPD2_2, Q68DX3
[25] = target: PDLIM1, O00151
[26] = target: T10, GRIP1_2, Q9Y3R0
T10 sequence (Q9Y3R0 145-248, limits assumed, looked up): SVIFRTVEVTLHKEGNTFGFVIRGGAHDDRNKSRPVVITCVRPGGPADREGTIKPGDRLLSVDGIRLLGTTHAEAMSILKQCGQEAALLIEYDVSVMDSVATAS

[27] = target: T11, GRIP1_7, Q9Y3R0
T11 sequence (Q9Y3R0 999-1096, limits assumed, looked up): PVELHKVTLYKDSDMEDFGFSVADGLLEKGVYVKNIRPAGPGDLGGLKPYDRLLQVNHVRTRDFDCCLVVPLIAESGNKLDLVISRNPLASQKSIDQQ

[28] = plain residues with an end cap or a label only (N-terminal biotin on a linker: ttds)
[29] = plain residues with an end cap or a label only (N-terminal biotin on a linker: ahx)

Sequence of Inadl_6, Q8NI35 (Q8NI35 1058-1167): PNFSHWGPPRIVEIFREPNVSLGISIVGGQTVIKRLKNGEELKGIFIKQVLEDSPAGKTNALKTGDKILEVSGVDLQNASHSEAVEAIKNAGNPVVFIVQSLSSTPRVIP
Sequence of IL16_1, Q14005 (Q14005 210-306): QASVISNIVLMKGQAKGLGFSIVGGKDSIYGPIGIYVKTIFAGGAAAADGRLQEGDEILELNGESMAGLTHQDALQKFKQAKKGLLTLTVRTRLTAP
Sequence of FRMPD2_2, Q68DX3 (Q68DX3 944-1038): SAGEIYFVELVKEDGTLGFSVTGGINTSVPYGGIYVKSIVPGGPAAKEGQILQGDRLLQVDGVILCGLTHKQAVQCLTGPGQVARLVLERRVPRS
Sequence of GRID2IP_1, A4D2P6 (A4D2P6 1-87): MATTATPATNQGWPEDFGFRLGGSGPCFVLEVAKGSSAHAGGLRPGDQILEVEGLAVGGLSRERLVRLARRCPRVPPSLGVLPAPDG
Sequence of LNX1_2, Q8TBB1 (Q8TBB1 371-470): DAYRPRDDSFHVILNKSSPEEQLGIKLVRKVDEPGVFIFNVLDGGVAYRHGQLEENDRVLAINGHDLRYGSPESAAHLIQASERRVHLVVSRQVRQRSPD
Sequence of NHERF4_4, Q86UT5 (Q86UT5 464-550): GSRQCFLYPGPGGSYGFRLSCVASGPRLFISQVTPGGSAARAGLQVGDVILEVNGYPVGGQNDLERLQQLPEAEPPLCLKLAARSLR
Sequence of Inadl_9, Q8NI35 (Q8NI35 1530-1615): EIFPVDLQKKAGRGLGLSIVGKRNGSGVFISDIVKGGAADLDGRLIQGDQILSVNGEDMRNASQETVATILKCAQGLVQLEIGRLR
Sequence of MAGI2_2, Q86UL8 (Q86UL8 410-522): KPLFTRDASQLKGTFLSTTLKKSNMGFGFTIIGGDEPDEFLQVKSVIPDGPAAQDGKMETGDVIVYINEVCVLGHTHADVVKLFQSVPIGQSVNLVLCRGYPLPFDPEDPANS
Sequence of GRIP2_4, Q9C0E4 (Q9C0E4 446-548): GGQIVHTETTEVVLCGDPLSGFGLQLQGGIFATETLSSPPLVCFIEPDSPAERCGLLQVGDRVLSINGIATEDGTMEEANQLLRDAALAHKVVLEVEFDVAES
Sequence of MAGI2_5, Q86UL8 (Q86UL8 915-1017): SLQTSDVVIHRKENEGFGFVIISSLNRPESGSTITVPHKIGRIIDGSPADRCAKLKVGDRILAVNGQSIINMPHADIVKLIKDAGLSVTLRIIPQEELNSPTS
Sequence of LIMK2, P53671 (P53671 143-248): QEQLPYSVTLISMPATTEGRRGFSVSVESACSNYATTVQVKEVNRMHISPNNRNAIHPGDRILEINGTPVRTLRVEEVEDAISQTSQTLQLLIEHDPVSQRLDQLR
Sequence of ARHGEF12, Q9NZN5-2 (Q9NZN5 other isoform, or with tags, fused parts or gaps): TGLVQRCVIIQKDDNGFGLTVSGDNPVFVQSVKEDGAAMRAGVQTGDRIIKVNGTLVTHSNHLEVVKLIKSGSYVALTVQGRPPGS
Sequence of CASK, O14936 (O14936 487-570): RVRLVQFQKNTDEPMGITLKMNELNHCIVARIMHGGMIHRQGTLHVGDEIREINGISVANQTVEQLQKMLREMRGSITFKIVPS
Sequence of GRID2IP_2, A4D2P6 (A4D2P6 272-370): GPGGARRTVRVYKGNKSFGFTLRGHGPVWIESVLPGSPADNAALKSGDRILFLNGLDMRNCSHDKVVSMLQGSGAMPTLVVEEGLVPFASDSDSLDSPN
Sequence of MAGI1_1, Q96QZ7 (Q96QZ7 1-106): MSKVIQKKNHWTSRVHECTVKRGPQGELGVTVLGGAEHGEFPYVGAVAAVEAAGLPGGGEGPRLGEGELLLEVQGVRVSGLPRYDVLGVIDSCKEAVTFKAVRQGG
Sequence of PDLIM1, O00151 (O00151 1-87): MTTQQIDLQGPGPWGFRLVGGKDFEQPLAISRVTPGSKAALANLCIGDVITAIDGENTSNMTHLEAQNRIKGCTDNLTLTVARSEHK

Binder: SSSNSEDTEM [NHERF3, Q5T2W1]
pKd [1, 29]: below the threshold | pKd [2, 29]: below the threshold | pKd [3, 29]: below the threshold | pKd [4, 29]: below the threshold | pKd [5, 29]: below the threshold | pKd [6, 29]: below the threshold | pKd [7, 29]: below the threshold | pKd [8, 29]: below the threshold | pKd [9, 29]: below the threshold | pKd [10, 29]: below the threshold | pKd [11, 29]: below the threshold | pKd [12, 29]: below the threshold | pKd [13, 29]: below the threshold | pKd [14, 29]: below the threshold | pKd [15, 29]: below the threshold | pKd [16, 29]: below the threshold | pKd [17, 29]: below the threshold | pKd [18, 29]: below the threshold | pKd [19, 29]: below the threshold | pKd [20, 29]: below the threshold | pKd [21, 29]: below the threshold | pKd [22, 29]: below the threshold | pKd [23, 29]: below the threshold | pKd [24, 29]: below the threshold | pKd [25, 29]: below the threshold | pKd [26, 29]: below the threshold | pKd [27, 29]: below the threshold

Binder: KTSAHHATFV [RGS12, O14924]
pKd [1, 29]: 3.82 | pKd [2, 29]: 4.42 | pKd [3, 29]: below the threshold | pKd [4, 29]: 4.37 | pKd [5, 29]: below the threshold | pKd [6, 29]: below the threshold | pKd [7, 29]: below the threshold | pKd [8, 29]: below the threshold | pKd [9, 29]: below the threshold | pKd [10, 29]: 3.61 | pKd [11, 29]: below the threshold | pKd [12, 29]: below the threshold | pKd [13, 29]: 3.78 | pKd [14, 29]: 4.29 | pKd [15, 29]: 5.28 | pKd [16, 29]: below the threshold | pKd [17, 29]: 3.94 | pKd [18, 29]: below the threshold | pKd [19, 29]: below the threshold | pKd [20, 29]: 3.54 | pKd [21, 29]: below the threshold | pKd [22, 29]: 4.27 | pKd [23, 29]: below the threshold | pKd [24, 29]: 4.72 | pKd [25, 29]: below the threshold | pKd [26, 29]: below the threshold | pKd [27, 29]: below the threshold

Binder: SPLHSLETSL [ATP2B1, P20020]
pKd [1, 28]: 4.88 | pKd [2, 28]: below the threshold | pKd [3, 28]: below the threshold | pKd [4, 28]: 4.31 | pKd [5, 28]: below the threshold | pKd [6, 28]: below the threshold | pKd [7, 28]: below the threshold | pKd [8, 28]: below the threshold | pKd [9, 28]: below the threshold | pKd [10, 28]: 4.22 | pKd [11, 28]: below the threshold | pKd [12, 28]: below the threshold | pKd [13, 28]: below the threshold | pKd [14, 28]: 3.86 | pKd [15, 28]: below the threshold | pKd [16, 28]: below the threshold | pKd [17, 28]: 4.31 | pKd [18, 28]: below the threshold | pKd [19, 28]: below the threshold | pKd [20, 28]: below the threshold | pKd [21, 28]: below the threshold | pKd [22, 28]: 4.17 | pKd [23, 28]: below the threshold | pKd [24, 28]: 3.48 | pKd [25, 28]: 3.71 | pKd [26, 28]: below the threshold | pKd [27, 28]: 3.58

Next, values leading:

pKd [1, 28]: 4.22 | pKd [2, 28]: below the threshold | pKd [3, 28]: below the threshold | pKd [4, 28]: 4.69 | pKd [5, 28]: below the threshold | pKd [6, 28]: below the threshold | pKd [7, 28]: 4.38 | pKd [8, 28]: below the threshold | pKd [9, 28]: below the threshold | pKd [10, 28]: 4.81 | pKd [11, 28]: below the threshold | pKd [12, 28]: below the threshold | pKd [13, 28]: below the threshold | pKd [14, 28]: 3.65 | pKd [15, 28]: below the threshold | pKd [16, 28]: below the threshold | pKd [17, 28]: 4.02 | pKd [18, 28]: below the threshold | pKd [19, 28]: below the threshold | pKd [20, 28]: below the threshold | pKd [21, 28]: below the threshold | pKd [22, 28]: 3.98 | pKd [23, 28]: below the threshold | pKd [24, 28]: 4.93 | pKd [25, 28]: below the threshold | pKd [26, 28]: below the threshold | pKd [27, 28]: 3.74
Binder: IQREDQETAV [DGKZ, Q13574]

pKd [1, 28]: 4.22 | pKd [2, 28]: below the threshold | pKd [3, 28]: below the threshold | pKd [4, 28]: below the threshold | pKd [5, 28]: below the threshold | pKd [6, 28]: below the threshold | pKd [7, 28]: below the threshold | pKd [8, 28]: below the threshold | pKd [9, 28]: below the threshold | pKd [10, 28]: below the threshold | pKd [11, 28]: below the threshold | pKd [12, 28]: below the threshold | pKd [13, 28]: below the threshold | pKd [14, 28]: 4.38 | pKd [15, 28]: below the threshold | pKd [16, 28]: below the threshold | pKd [17, 28]: below the threshold | pKd [18, 28]: below the threshold | pKd [19, 28]: below the threshold | pKd [20, 28]: 3.62 | pKd [21, 28]: below the threshold | pKd [22, 28]: 3.57 | pKd [23, 28]: below the threshold | pKd [24, 28]: 3.74 | pKd [25, 28]: 4 | pKd [26, 28]: below the threshold | pKd [27, 28]: below the threshold
Binder: MERLRVETDV [ARHGEF16, Q5VV41]
